Data on three molecules can be found in patent publication US20210054365A1.

In assay [1] the target is Sag1 (Saccharomyces cerevisiae) (UniProt P20840). Briefly: cell-based or functional assay.
Assay [2] shares this target. Briefly: cell-based or functional assay. The source holds these as a separate data set.
The target of assay [3] is BclXL (UniProt Q07817). The assay is described as follows: affinity as tabulated ('known affinities'); method not stated.
Assay [4] concerns the target T1, BclB (UniProt Q9HD36).
T1 sequence (looked up): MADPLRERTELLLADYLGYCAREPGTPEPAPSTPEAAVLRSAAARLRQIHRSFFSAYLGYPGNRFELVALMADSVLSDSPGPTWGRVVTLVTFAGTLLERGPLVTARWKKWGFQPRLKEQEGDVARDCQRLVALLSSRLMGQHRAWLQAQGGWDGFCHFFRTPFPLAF
The description is as above.

Assay [5] concerns the target BclW (UniProt Q92843). The assay is described as above.
Assay [6] has as its target Bfl1 (UniProt Q16548). Described as above.
In assay [7] the target is Mcl1 (UniProt Q07820). The description is as above.
For assay [8], the target named is Bcl2 (UniProt P10415). The assay is described as above.

Read-outs that look alike come from different tables or passages of the source. Some results are limits rather than exact numbers.

BclW, sequence (Q92843 1-182 limits assumed): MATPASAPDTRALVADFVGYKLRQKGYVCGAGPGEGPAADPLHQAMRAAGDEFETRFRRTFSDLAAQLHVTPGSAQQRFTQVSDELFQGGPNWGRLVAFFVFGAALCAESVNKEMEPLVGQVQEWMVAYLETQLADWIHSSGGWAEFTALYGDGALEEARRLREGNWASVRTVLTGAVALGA
Bcl2, sequence (P10415 1-207 limits assumed): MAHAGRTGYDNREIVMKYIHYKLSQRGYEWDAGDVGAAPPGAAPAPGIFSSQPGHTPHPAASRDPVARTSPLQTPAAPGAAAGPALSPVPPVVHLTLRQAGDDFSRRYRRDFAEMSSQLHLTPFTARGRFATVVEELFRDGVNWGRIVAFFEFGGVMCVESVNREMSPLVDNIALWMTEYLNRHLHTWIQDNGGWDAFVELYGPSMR
Mcl1, sequence (Q07820 whole entry): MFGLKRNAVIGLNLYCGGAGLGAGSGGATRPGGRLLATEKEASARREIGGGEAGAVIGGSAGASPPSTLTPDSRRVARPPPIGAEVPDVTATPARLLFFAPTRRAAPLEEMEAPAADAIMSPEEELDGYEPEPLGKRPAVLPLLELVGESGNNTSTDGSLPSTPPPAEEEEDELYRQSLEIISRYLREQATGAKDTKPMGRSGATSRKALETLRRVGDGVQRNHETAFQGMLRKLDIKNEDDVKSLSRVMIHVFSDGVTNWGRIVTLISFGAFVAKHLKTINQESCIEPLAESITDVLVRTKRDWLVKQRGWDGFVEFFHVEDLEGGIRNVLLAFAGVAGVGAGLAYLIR
Sag1 (Saccharomyces cerevisiae), sequence (P20840 20-627): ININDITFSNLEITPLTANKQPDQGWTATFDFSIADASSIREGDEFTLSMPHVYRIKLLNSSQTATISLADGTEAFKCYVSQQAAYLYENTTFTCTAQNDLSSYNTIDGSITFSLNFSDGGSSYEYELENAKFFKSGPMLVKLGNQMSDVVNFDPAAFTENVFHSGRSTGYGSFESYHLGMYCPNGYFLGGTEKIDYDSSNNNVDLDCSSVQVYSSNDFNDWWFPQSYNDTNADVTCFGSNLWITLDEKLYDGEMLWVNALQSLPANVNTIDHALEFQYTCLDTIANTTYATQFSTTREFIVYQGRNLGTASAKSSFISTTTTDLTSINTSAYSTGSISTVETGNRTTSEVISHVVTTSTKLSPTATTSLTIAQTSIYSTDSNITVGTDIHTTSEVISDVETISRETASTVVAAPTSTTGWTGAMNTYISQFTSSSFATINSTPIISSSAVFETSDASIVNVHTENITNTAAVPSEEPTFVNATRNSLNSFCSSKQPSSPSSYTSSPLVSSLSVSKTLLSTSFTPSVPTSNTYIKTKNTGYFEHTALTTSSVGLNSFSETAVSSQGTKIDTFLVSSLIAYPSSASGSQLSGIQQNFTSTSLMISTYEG
BclXL, sequence (Q07817 1-209 limits assumed): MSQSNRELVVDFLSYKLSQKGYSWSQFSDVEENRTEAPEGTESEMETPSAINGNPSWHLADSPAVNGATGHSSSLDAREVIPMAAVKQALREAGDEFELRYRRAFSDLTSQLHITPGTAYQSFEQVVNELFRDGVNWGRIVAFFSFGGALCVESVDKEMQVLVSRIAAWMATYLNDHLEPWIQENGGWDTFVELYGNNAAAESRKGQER
Bfl1, sequence (Q16548 1-153 limits assumed): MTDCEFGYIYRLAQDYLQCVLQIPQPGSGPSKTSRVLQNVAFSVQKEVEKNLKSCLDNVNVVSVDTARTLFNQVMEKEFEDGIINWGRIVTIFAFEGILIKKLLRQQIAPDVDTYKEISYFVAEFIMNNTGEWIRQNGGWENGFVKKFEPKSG

For the molecule Aga2 (from UniProt P32781 19-87), the mating efficiency was 57.1% in assay [1] and greater than 50% in assay [2].

B1: XINDI-XCDP07 (designed binder, from a related filing)
chain: ADPKKVLDKAKDRAENVVRKLKKELEELYKEARKLDLTQEMRDRIRLAAIAARIAAFGDIFHAIMEALEEARKLKKAGLVNSQQLDELKRRLEELDEEAAQRAEKLGKEFELKLEY
For B1, the Kd – broadly, the equilibrium constant for the complex coming apart – amounted to 0.59 nM in assay [3]; 107 nM in assay [4]; 14.9 nM in assay [5]; 7.05 µM in assay [6]; 17.4 nM in assay [7]; 3.81 nM in assay [8].

B2: BINDI-BCDP01 (designed binder, from a related filing)
chain: ADPKKVLDKAKDQAENRVRELKQELERLYKEARKLDLTQEMRRKLEWRYIAAMLKAIGDILNAIAQAENEADKLKKAGLVNSQQLDELRRRLEELAKEAARKAHDYGREFQLKLEY
With B2, the Kd in assay [3] was found to be 20.2 nM; in assay [4], 8.33 nM; in assay [5] it was 2010 nM; in assay [6] it was 0.518 µM; in assay [7], 0.46 nM; in assay [8], 17.3 nM.
